Here are results for eight proteins from PMC6987189, “Native aggregation is a common feature among triosephosphate isomerases of different species” (Scientific Reports, 2020).

Test in all cases: purified protein
Holding throughout (conditions): GAP to DHAP direction, 25 °C, 100 mM TEA, 10 mM EDTA, 0.2 mM NADH, GAP 0.3 to 3 mM

Substrate in data set [1]: O=C[C@H](O)COP(=O)(O)O
The class given is biochemical, Trypanosoma cruzi.

Substrate in data set [2]: O=C[C@H](O)COP(=O)(O)O
The format is biochemical, Thermus thermophilus.

Substrate in data set [3]: O=C[C@H](O)COP(=O)(O)O
The class given is biochemical, Entamoeba histolytica.

Substrate in data set [4]: O=C[C@H](O)COP(=O)(O)O
The format is biochemical, Saccharomyces cerevisiae.

Substrate in data set [5]: O=C[C@H](O)COP(=O)(O)O
The class given is biochemical, Plasmodium falciparum.

Substrate in data set [6]: O=C[C@H](O)COP(=O)(O)O
The class given is biochemical, Trypanosoma brucei.

Substrate in data set [7]: O=C[C@H](O)COP(=O)(O)O
The class given is biochemical, Taenia solium.

Substrate in data set [8]: O=C[C@H](O)COP(=O)(O)O
The format is biochemical, Leishmania mexicana.

B1: TcTIM (Trypanosoma cruzi) (protein)
chain: MASKPQPIAAANWKCNGSESLLVPLIETLNAATFDHDVQCVVAPTFLHIPMTKARLTNPKFQIAAQNAITRSGAFTGEVSLQILKDYGISWVVLGHSERRLYYGETNEIVAEKVAQACAAGFHVIVCVGETNEEREAGRTAAVVLTQLAAVAQKLSKEAWSRVVIAYEPVWAIGTGKVATPQQAQEVHELLRRWVRSKLGTDIAAQLRILYGGSVTAKNARTLYQMRDINGFLVGGASLKPEFVEIIEATK
notes: recombinant, E. coli BL21(DE3)pLysS, pET-3a, purified; dimer plus higher aggregates
With B1, in data set [1], the Km was determined as 440 ± 50 µM, the kcat was found to be 6000 ± 230 s⁻¹ and the kcat/Km is 1.36e+07 M⁻¹ s⁻¹.

B2: TtTIM (Thermus thermophilus HB8) (protein)
chain: MRRVLVAGNWKMHKTPSEARVWFAELKRLLPPLQSEAAVLPAFPILPVAKEVLAETQVGYGAQDVSAHKEGAYTGEVSARMLSDLGCRYAIVGHSERRRYHGETDALVAEKAKRLLEEGITPILCVGEPLEVREKGEAVPYTLRQLRGSLEGVEPPGPEALVIAYEPVWAIGTGKNATPEDAEAMHQAIRKALSERYGEAFASRVRILYGGSVNPKNFADLLSMPNVDGGLVGGASLELESFLALLRIAG
notes: recombinant, E. coli BL21(DE3)pLysS, pET-3aHIS (His tag), purified; dimer plus higher aggregates
Regarding B2, in data set [2], the Michaelis-Menten constant (Km) turned out to be 60 ± 10 µM, the kcat came to 1788 ± 0.9 s⁻¹ and the specificity constant (kcat/Km) stood at 3e+07 M⁻¹ s⁻¹.

B3: EhTIM (Entamoeba histolytica HM-1:IMSS) (protein)
chain: MSARKFVVGGNWKCNGTLASIETLTKGVAASVDAELAKKVEVIVGVPFIYIPKVQQILAGEANGANILVSAENAWTKSGAYTGEVHVGMLVDCQVPYVILGHSERRQIFHESNEQVAEKVKVAIDAGLKVIACIGETEAQRIANQTEEVVAAQLKAINNAISKEAWKNIILAYEPVWAIGTGKTATPDQAQEVHQYIRKWMTENISKEVAEATRIQYGGSVNPANCNELAKKADIDGFLVGGASLDAAKFKTIINSVSEKF
notes: recombinant, E. coli BL21(DE3)pLysS, plasmid given as pRET, purified; dimer plus higher aggregates
On to B3, for which, in data set [3], the Km was 140 ± 30 µM, the kcat came out at 3650 ± 254 s⁻¹ and the kcat/Km worked out at 2.5e+07 M⁻¹ s⁻¹.

B4: ScTIM (Saccharomyces cerevisiae S288C) (protein)
chain: ARTFFVGGNFKLNGSKQSIKEIVERLNTASIPENVEVVICPPATYLDYSVSLVKKPQVTVGAQNAYLKASGAFTGENSVDQIKDVGAKWVILGHSERRSYFHEDDKFIADKTKFALGQGVGVILCIGETLEEKKAGKTLDVVERQLNAVLEEVKDWTNVVVAYEPVWAIGTGLAATPEDAQDIHASIRKFLASKLGDKAASELRILYGGSANGSNAVTFKDKADVDGFLVGGASLKPEFVDIINSRN
notes: recombinant, E. coli BL21(DE3)pLysS, plasmid pKK233-3, purified; dimer plus higher aggregates
Regarding B4, in data set [4], the Km was found to be 790 ± 100 µM, the kcat amounted to 8690 ± 142 s⁻¹ and the kcat/Km is 1.1e+07 M⁻¹ s⁻¹.

B5: PfTIM (Plasmodium falciparum) (protein)
chain: MARKYFVAANWKCNGTLESIKSLTNSFNNLDFDPSKLDVVVFPVSVHYDHTRKLLQSKFSTGIQNVSKFGNGSYTGEVSAEIAKDLNIEYVIIGHFERRKYFHETDEDVREKLQASLKNNLKAVVCFGESLEQREQNKTIEVITKQVKAFVDLIDNFDNVILAYEPLWAIGTGKTATPEQAQLVHKEIRKIVKDTCGEKQANQIRILYGGSVNTENCSSLIQQEDIDGFLVGNASLKESFVDIIKSAM
notes: recombinant, E. coli BL21(DE3)pLysS, pTRC99A, purified (extra low-mass band on SDS-PAGE); dimer plus higher aggregates
As to B5, in data set [5], the Km is 810 ± 40 µM, the kcat was 5846 ± 39 s⁻¹ and the kcat/Km amounted to 7.3e+06 M⁻¹ s⁻¹.

B6: TbTIM (Trypanosoma brucei brucei) (protein)
chain: MSKPQPIAAANWKCNGSQQSLSELIDLFNSTSINHDVQCVVASTFVHLAMTKERLSHPKFVIAAQNAIAKSGAFTGEVSLPILKDFGVNWIVLGHSERRAYYGETNEIVADKVAAAVASGFMVIACIGETLQERESGRTAVVVLTQIAAIAKKLKKADWAKVVIAYEPVWAIGTGKVATPQQAQEAHALIRSWVSSKIGADVAGELRILYGGSVNGKNARTLYQQRDVNGFLVGGASLKPEFVDIIKATQ
notes: as for B1
As for B6, in data set [6], the Km is 450 ± 50 µM, the kcat turned out to be 5170 ± 117 s⁻¹ and the kcat/Km stood at 1.15e+07 M⁻¹ s⁻¹.

B7: TsTIM (Taenia solium) (protein)
chain: MTRKLFVGGNWKMNGSYSHINTFFDTLQKADTDPNADIVIGVPACYLKYAQDKAPKGIKIAAENCYKVGSGAFTGEISTEMIKDCGCEWVILGHSERRHIFGESNELIGEKVKHALDSGLNVIPCIGELLSEREAGKTNDVCFAQMDAIAKNVPSKEAWDKVVIAYEPVWAIGTGKTATPAQAQEVHKVVRDWIRKHVDAGIADKVRILYGGSVTASNAKDLGTQPDVDGFLVGGASLKPDFITIINARR
notes: recombinant, E. coli BL21(DE3)pLysS, pRSET (His tag), purified; dimer plus higher aggregates
Turning to B7, in data set [7], the Km is 520 ± 30 µM, the kcat came out at 2460 ± 101 s⁻¹ and the kcat/Km was 4.7e+06 M⁻¹ s⁻¹.

B8: LmTIM (Leishmania mexicana) (protein)
chain: MSAKPQPIAAANWKCNGTTASIEKLVQVFNEHTISHDVQCVVAPTFVHIPLVQAKLRNPKYVISAENAIAKSGAFTGEVSMPILKDIGVHWVILGHSERRTYYGETDEIVAQKVSEACKQGFMVIACIGETLQQREANQTAKVVLSQTSAIAAKLTKDAWNQVVLAYEPVWAIGTGKVATPEQAQEVHLLLRKWVSENIGTDVAAKLRILYGGSVNAANAATLYAKPDINGFLVGGASLKPEFRDIIDATR
notes: as for B2
Regarding B8, in data set [8], the Km stood at 470 ± 10 µM, the kcat came to 2800 ± 164 s⁻¹ and the kcat/Km turned out to be 5.9e+06 M⁻¹ s⁻¹.
